Measurements from patent publication US20220265819A1 (GEN2 NEUROSCIENCE, published 2022).

Legend:
[1] = biological target: T1, full length recombinant human 2N4R tau (amino acids 1-441) (human, UniProt P10636 1-758); test: ELISA, HEK293F supernatant on coated tau
T1 construct: Bought (rPeptide); recombinant, non-phosphorylated; also called recombinant tau
Method: (§1) Antigen was removed from wells and the plates were then blocked for 1 hour at RT with 5% dried milk in 1×TBS. Blocking solution was removed. HEK293F cell supernatant (10 μg/mL, to 0.0001 μg/mL in 1% BSA/1×TBS) was added to relevant wells, and plates were incubated for 1 hour at RT with gentle shaking. Plates were then washed four times with TBS/0.1% Tween (TBST). Anti-rabbit IgG-HRP antibody (Sigma. St Louis, Mo., USA), diluted 1:5000 in 5% milk/TBS, was added to each well and plates were incubated for 1 hour at RT with gentle shaking before being washed four times with TBST. 3,3′,5,5′-tetramethylbenzidine (TMB) ELISA solution was added to each well and plates were incubated for 15 mins at RT. An equal volume of 1 M sulfuric acid was added to each well and OD was measured at 450 nm.

[2] = biological target: T1, full length recombinant human 2N4R tau …; test: ELISA, purified IgG on coated tau, half maximal signal
Method: as §1, with “13.1 ELISA analyses: ELISA plates were coated with antigen (full length tau, 100 ng/well; or 1% BSA in 1×TBS) in 1× carbonate-bicarbonate buffer for 1 hour at 37° C. Antigen” for “Antigen”, “1×TBS (200 μl/well).” for “1×TBS.”, “removed, diluted IgG” for “removed. HEK293F cell supernatant”, “(Sigma,” for “(Sigma.”, “TBST. 25 μL” for “TBST.”, “RT, an” for “RT. An”
Data were plotted as log concentration of IgG against ELISA signal (OD) and EC₅₀ values were calculated using a four parameter logistic equation with variable slope using GraphPad Prism (GraphPad Software Inc, La Jolla, Calif., USA).

Bovine serum albumin = biological target: T2, Bovine serum albumin (bovine, UniProt P02769 25-607); test: ELISA on 1% BSA, HEK293F supernatant, anti-rabbit IgG-HRP, n=1
T2 construct: Negative control antigen in ELISA; also called BSA
T2 sequence (P02769 25-607 limits assumed): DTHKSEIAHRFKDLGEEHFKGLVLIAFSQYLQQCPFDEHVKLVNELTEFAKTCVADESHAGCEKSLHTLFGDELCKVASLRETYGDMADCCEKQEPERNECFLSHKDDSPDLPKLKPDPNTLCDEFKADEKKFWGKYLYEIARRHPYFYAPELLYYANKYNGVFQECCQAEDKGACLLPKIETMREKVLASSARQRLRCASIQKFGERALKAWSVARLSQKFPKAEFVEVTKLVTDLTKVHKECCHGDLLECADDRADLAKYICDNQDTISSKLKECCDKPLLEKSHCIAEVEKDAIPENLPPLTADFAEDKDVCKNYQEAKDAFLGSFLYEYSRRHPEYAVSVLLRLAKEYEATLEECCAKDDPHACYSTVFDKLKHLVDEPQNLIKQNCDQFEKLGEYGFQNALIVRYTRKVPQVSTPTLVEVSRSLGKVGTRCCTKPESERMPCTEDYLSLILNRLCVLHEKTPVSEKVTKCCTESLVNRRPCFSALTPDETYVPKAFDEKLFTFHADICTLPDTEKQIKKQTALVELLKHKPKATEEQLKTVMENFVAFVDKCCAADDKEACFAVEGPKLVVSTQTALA
Method: FIG. 9. A panel of anti-tau IgG bind to linear immunogen peptide and full length recombinant 2N4R tau in ELISA format. […] Binding of anti-tau IgG was detected using an HRP-conjugated anti-rabbit secondary antibody and data shown are from a representative experiment (n=1).
as §1

T1 sequence (P10636 other isoform, or with tags, fused parts or gaps limits assumed): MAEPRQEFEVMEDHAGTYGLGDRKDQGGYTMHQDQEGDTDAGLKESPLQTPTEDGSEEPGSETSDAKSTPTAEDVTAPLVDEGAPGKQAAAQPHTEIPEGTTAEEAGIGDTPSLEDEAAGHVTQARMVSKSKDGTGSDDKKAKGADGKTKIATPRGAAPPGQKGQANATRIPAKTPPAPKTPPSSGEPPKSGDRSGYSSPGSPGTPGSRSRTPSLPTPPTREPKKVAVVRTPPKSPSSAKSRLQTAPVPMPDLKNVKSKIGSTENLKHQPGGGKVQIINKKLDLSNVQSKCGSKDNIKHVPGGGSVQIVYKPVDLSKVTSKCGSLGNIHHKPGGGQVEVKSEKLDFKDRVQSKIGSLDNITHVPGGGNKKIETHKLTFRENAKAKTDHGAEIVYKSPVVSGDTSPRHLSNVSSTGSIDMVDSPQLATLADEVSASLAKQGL

OD (ELISA) [1]: 0.3 OD
EC50 [2]: 0.73 nM
binding result (Bovine serum albumin): no binding (tested: supernatant 1:50)
B1: Clone 1 rabbit monoclonal IgG (antibody, V domains shown)
VH: QSLEESGGGLVKPGGTLTLTCTVSGFSLNNYDMSWVRQAPGKGLEWIGTVSTTYRRYYASWAKGRFTISKTSSTTVDLKMTSLTTEDTATYFCAASGIWGPGTLVTVSL
VL: AQVLTQTTSPVSAAVGGTVTINCQSSQRVYSNYLAWYQQKPGQPPKRLIFLASTLESGVPSRFSGSGSGTQFTLTISDLECDDAATYYCAGTYTGSIWAFGGGTEVVVKG
notes: Rabbit IgG expressed in HEK293F (pRab293); also called P1-D4; #28
